According to PMC8523169, “Competitive binding of MatP and topoisomerase IV to the MukB hinge domain” (eLife, 2021):

Legend:
[1] = molecular target: T1, full-length ParC, N-terminal 6xHis-tag (E. coli, UniProt P0AFI2 1-752); assay: SEC; topoIV reconstitution: equimolar ParC and ParE, 30 min on ice, verified in analytical SEC; conditions: both partners purified
T1 construct: ParC subunit of topoisomerase IV, E. coli, full length; also called His-ParC; ParC2; source: overexpressed, purified as previously published (Nolivos et al., 2016) with an added SEC step; not shown: His6, N-terminal, kept
T1 sequence (looked up): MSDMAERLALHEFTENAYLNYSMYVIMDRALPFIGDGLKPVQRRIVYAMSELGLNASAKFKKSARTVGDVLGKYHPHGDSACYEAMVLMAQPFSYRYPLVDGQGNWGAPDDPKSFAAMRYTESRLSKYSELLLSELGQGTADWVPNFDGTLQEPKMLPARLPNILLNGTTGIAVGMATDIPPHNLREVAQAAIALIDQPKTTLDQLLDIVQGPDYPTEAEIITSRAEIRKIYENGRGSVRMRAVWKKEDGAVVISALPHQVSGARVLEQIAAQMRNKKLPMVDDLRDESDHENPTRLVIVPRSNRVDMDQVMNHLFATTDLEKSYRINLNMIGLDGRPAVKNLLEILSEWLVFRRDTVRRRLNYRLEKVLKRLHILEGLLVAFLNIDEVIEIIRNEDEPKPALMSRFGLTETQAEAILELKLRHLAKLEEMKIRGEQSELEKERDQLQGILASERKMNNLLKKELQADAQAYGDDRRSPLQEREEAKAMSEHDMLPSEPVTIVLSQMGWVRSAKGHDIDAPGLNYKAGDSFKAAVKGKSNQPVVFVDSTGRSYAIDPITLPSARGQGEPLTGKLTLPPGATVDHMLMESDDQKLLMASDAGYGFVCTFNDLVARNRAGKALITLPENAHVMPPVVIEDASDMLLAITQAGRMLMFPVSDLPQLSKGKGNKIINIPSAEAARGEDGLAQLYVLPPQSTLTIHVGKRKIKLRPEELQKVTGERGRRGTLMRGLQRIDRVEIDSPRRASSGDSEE

[2] = molecular target: the molecule itself; assay: native MS; proteins buffer exchanged into 200 mM ammonium acetate pH 8.0, alone or mixed in different ratios (two or three components, with or without 50 bp DNA), 10 min on ice
[3] = molecular target: T2, MatPΔ18C (1–132), C-terminal 6xHis-tag (E. coli, UniProt P0A8N0 1-132); assay: as above; conditions: both partners purified
T2 construct: MatP, E. coli, residues 1-132 (deletion of the 18 C-terminal residues); also called MatPΔ18C-His; MatP2; source: overexpressed, purified as previously published (Nolivos et al., 2016) with an added SEC step; not shown: His6, C-terminal, kept
T2 sequence (looked up): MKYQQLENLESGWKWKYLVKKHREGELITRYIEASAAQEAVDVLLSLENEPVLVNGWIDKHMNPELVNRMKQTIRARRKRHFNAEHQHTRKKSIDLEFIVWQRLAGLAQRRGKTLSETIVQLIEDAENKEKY

B1: ParE-His (enzyme, E. coli, UniProt P20083 1-630, looked up)
chain: MTQTYNADAIEVLTGLEPVRRRPGMYTDTTRPNHLGQEVIDNSVDEALAGHAKRVDVILHADQSLEVIDDGRGMPVDIHPEEGVPAVELILCRLHAGGKFSNKNYQFSGGLHGVGISVVNALSKRVEVNVRRDGQVYNIAFENGEKVQDLQVVGTCGKRNTGTSVHFWPDETFFDSPRFSVSRLTHVLKAKAVLCPGVEITFKDEINNTEQRWCYQDGLNDYLAEAVNGLPTLPEKPFIGNFAGDTEAVDWALLWLPEGGELLTESYVNLIPTMQGGTHVNGLRQGLLDAMREFCEYRNILPRGVKLSAEDIWDRCAYVLSVKMQDPQFAGQTKERLSSRQCAAFVSGVVKDAFILWLNQNVQAAELLAEMAISSAQRRMRAAKKVVRKKLTSGPALPGKLADCTAQDLNRTELFLVEGDSAGGSAKQARDREYQAIMPLKGKILNTWEVSSDEVLASQEVHDISVAIGIDPDSDDLSQLRYGKICILADADSDGLHIATLLCALFVKHFRALVKHGHVYVALPPLYRIDLGKEVYYALTEEEKEGVLEQLKRKKGKPNVQRFKGLGEMNPMQLRETTLDPNTRRLVQLTIDDEDDQRTDAMMDMLLAKKRSEDRRNWLQEKGDMAEIEV
notes: ParE subunit of topoisomerase IV, E. coli; source: overexpressed, purified (TALON, HiTrap Q XL, SEC)
binding result [1]: binds | stoichiometry N [2]: 2

B2: MatP^4E (K71E, Q72E, R75E, and R77E) (domain or fragment, E. coli, UniProt P0A8N0 1-132, looked up)
chain: MKYQQLENLESGWKWKYLVKKHREGELITRYIEASAAQEAVDVLLSLENEPVLVNGWIDKHMNPELVNRMEETIEAERKRHFNAEHQHTRKKSIDLEFIVWQRLAGLAQRRGKTLSETIVQLIEDAENKEKY
notes: MatP, E. coli, residues 1-132 (MatPΔ18C) with four substitutions; also called MatP K71E, Q72E, R75E, R77E; source: site-directed mutagenesis, purified using the same protocol as MatP
stoichiometry N [2]: 2

B3: MukB short hinge (SH; amino acid residues 667–779) (domain or fragment, E. coli, UniProt P22523 667-779, looked up)
chain: GGSEDQRLNALAERFGGVLLSEIYDDVSLEDAPYFSALYGPSRHAIVVPDLSQVTEHLEGLTDCPEDLYLIEGDPQSFDDSVFSVDELEKAVVVKIADRQWRYSRFPEVPLFG
notes: MukB, E. coli, residues 667-779: hinge lacking the entire coiled-coil; Monomer/dimer mix at tens of µM by nMS; also called SH-His; SH MukB; source: overexpressed, purified (TALON, HiTrap Q XL, SEC); not shown: His6, C-terminal, kept
binding result [3]: binds | stoichiometry N [2]: 2

B4: His-ParC R705E R729A (enzyme, E. coli, UniProt P0AFI2 1-752, looked up)
chain: MSDMAERLALHEFTENAYLNYSMYVIMDRALPFIGDGLKPVQRRIVYAMSELGLNASAKFKKSARTVGDVLGKYHPHGDSACYEAMVLMAQPFSYRYPLVDGQGNWGAPDDPKSFAAMRYTESRLSKYSELLLSELGQGTADWVPNFDGTLQEPKMLPARLPNILLNGTTGIAVGMATDIPPHNLREVAQAAIALIDQPKTTLDQLLDIVQGPDYPTEAEIITSRAEIRKIYENGRGSVRMRAVWKKEDGAVVISALPHQVSGARVLEQIAAQMRNKKLPMVDDLRDESDHENPTRLVIVPRSNRVDMDQVMNHLFATTDLEKSYRINLNMIGLDGRPAVKNLLEILSEWLVFRRDTVRRRLNYRLEKVLKRLHILEGLLVAFLNIDEVIEIIRNEDEPKPALMSRFGLTETQAEAILELKLRHLAKLEEMKIRGEQSELEKERDQLQGILASERKMNNLLKKELQADAQAYGDDRRSPLQEREEAKAMSEHDMLPSEPVTIVLSQMGWVRSAKGHDIDAPGLNYKAGDSFKAAVKGKSNQPVVFVDSTGRSYAIDPITLPSARGQGEPLTGKLTLPPGATVDHMLMESDDQKLLMASDAGYGFVCTFNDLVARNRAGKALITLPENAHVMPPVVIEDASDMLLAITQAGRMLMFPVSDLPQLSKGKGNKIINIPSAEAARGEDGLAQLYVLPPQSTLTIHVGKEKIKLRPEELQKVTGERGRRGTLMAGLQRIDRVEIDSPRRASSGDSEE
notes: ParC, E. coli, full length, with two substitutions; also called ParC^EA; source: site-directed mutagenesis, purified using the same protocol as ParC; not shown: His6, N-terminal, kept
stoichiometry N [2]: 2
